Results as given in the supplement of paper PMC7125110.
± gives the standard error. For some assays here: Fewer inactive variants are shown than the library holds.

B1: glmS ribozyme (parent)
chain: AUAAAAGCGCCAGAACUACAGAAAUGUAGUUGACGAGGAGGAGGUUUAUCGAAUUUUCGGCGGAUGCCUCCAAA

Tests used:
Details in all cases: with glucosamine-6-phosphate
[1] = variants of: B1; experiment: kcat; higher = faster cleavage; RNA array
Summary of the method: (§1)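 Tracking of barcoded ribozyme variants used a hybridised Cy3 probe at 37 °C, after in situ transcription by E. coli RNA polymerase on sequenced MiSeq chips. The flowed solution held 40 μM to 10 mM glucosamine-6-phosphate in HEPES/KCl/Mg(OAc)2 buffer, and imaging ran over ~14 h. kobs was taken from exponential decay fits of normalised per-tile medians, and kcat and KM from weighted Michaelis–Menten fits.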

[2] = variants of: B1; experiment: self-cleavage kobs at 40 uM GlcN6P; higher = faster cleavage; RNA array
Summary of the method: as §1

[3] = variants of: B1; experiment: KM; higher = weaker cofactor use; RNA array
Summary of the method: as §1

[4] = variants of: B1; experiment: self-cleavage kobs at 160 uM GlcN6P; higher = faster cleavage; RNA array
Summary of the method: as §1

[5] = variants of: B1; experiment: self-cleavage kobs at 640 uM GlcN6P; higher = faster cleavage; RNA array
Summary of the method: as §1

[6] = variants of: B1; experiment: self-cleavage kobs at 2500 uM GlcN6P; higher = faster cleavage; RNA array
Summary of the method: as §1

[7] = variants of: B1; experiment: self-cleavage kobs at 10000 uM GlcN6P; higher = faster cleavage; RNA array
Summary of the method: as §1

| Variant | kcat [1] [s⁻¹] | self-cleavage kobs at 40 uM GlcN6P [2] [s⁻¹] | KM [3] [µM] | self-cleavage kobs at 160 uM GlcN6P [4] [s⁻¹] | self-cleavage kobs at 640 uM GlcN6P [5] [s⁻¹] | self-cleavage kobs at 2500 uM GlcN6P [6] [s⁻¹] | self-cleavage kobs at 10000 uM GlcN6P [7] [s⁻¹] |
| --- | --- | --- | --- | --- | --- | --- | --- |
| AUAAAAGCGCCAGAACUACAGAAAUGUAGUUGACGAGGAGGAGGUUUAUCGAAUCUUCGACGGAUGCCUCCAAA | 1.48e-05 ± 1.8e-06 | < 1e-05 | – | – | – | – | – |
| AUAAAAGCGCCAGAACUACAGAAAUGUAGUUGACGAGGAGGAGGUUUAUCGAAUCUUCGGCGGAUACCUCCAAA | 0.0117 ± 0.003 | 0.0004 ± 6.8e-05 | 1240 ± 450 | 0.00128 ± 0.0002 | 0.0034 ± 0.00061 | 0.0116 ± 0.0017 | 0.00884 ± 0.0018 |
| AUAAAAGCGCCAGAACUACAGAAAUGUAGUUGACGAGGAGGAGGUUUAUCGAAUCUUCGGCGGUUGCCUCCAAA | 5.99e-05 ± 7.9e-06 | – | – | – | – | 4.69e-05 ± 8e-06 | 5.2e-05 ± 5.7e-06 |
| AUAAAAGCGCCAGAACUACAGAAAUGUAGUUGACGAGGAGGAGGUUUAUCGAAUCUUCGGCGGGUGCCUCCAAA | 0.000719 ± 0.00011 | 4.14e-05 ± 1.2e-05 | 1350 ± 370 | 6.7e-05 ± 1e-05 | 0.000233 ± 3e-05 | 0.000568 ± 7e-05 | 0.000595 ± 6.1e-05 |
| AUAAAAGCGCCAGAACUACAGAAAUGUAGUUGACGAGGAGGAGGUUUAUCGAAUAUACGGCGGAUGCCUCCAAA | 0.000112 ± 3.7e-05 | – | – | – | 7.83e-05 ± 1.8e-05 | 8.45e-05 ± 2.7e-05 | – |
| AUAAAAGCGCCAGAACUACAGAAAUGUAGUUGACGAGGAGGAGGUUUAUCGAAUAUUCGGCGGAUUCCUCCAAA | 0.00223 ± 0.00093 | 7.9e-05 ± 1.3e-05 | – | 0.000202 ± 5.4e-05 | 0.000355 ± 7.1e-05 | 0.00136 ± 0.00021 | 0.00195 ± 0.00029 |
| AUAAAAGCGCCAGAACUACAGAAAUGUAGUUGACGAGGAGGAGGUUUAUCGAAUAUUGGGCGGAUGCCUCCAAA | 0.00041 ± 0.00019 | – | – | – | 2.55e-05 ± 1.3e-05 | 4.69e-05 ± 1.5e-05 | 0.000153 ± 2.5e-05 |
| AUAAAAGCGCCAGAACUACAGAAAUGUAGUUGACGAGGAGGAGGUUUAUCGAAUAUUCGGCGGACGACUCCAAA | 0.000108 ± 1.2e-05 | – | – | – | 8.44e-05 ± 2.9e-05 | 8.42e-05 ± 2.6e-05 | 0.000114 ± 2.4e-05 |
| AUAAAAGCGCCAGAACUACAGAAAUGUAGUUGACGAGGAGGAGGUUUAUCGAAUCUUCGGCGGAUGCCUCUAAA | 0.00258 ± 5.1e-05 | 6.36e-05 ± 1e-05 | 1620 ± 49 | 0.000225 ± 3.7e-05 | 0.000749 ± 0.00015 | 0.00157 ± 0.00021 | 0.00222 ± 0.00029 |
| AUAAAAGCGCCAGAACUACAGAAAUGUAGUUGACGAGGAGGAGGUUUAUCGAAUCUUCGGCGGAUGCCUCGAAA | 0.000144 ± 9.8e-06 | – | 1810 ± 300 | – | 3.46e-05 ± 9.7e-06 | 8.92e-05 ± 1.3e-05 | 0.000118 ± 1.9e-05 |
| AUAAAAGCGCCAGAACUACAGAAAUGUAGUUGACGAGGAGGAGGUUUAUCGAAUCGUCGGCGGAUGCCUCCAAA | 0.0112 ± 0.0051 | 0.000172 ± 3.6e-05 | – | 0.000456 ± 6.4e-05 | 0.00134 ± 0.00022 | 0.00329 ± 0.00056 | 0.0103 ± 0.0016 |
| AUAAAAGCGCCAGAACUACAGAAAUGUAGUUGACGAGGAGGAGGUUUAUCGAAUAUUCGGCGGAGGCCUCCAAA | 0.00556 ± 0.0024 | 7.69e-05 ± 2.5e-05 | – | 0.000125 ± 4.4e-05 | 0.000517 ± 0.0001 | 0.00303 ± 0.001 | 0.00343 ± 0.00072 |
| AUAAAAGCGCCAGAACUACAGAAAUGUAGUUGACGAGGAGGAGGUUUAUCGAAUCUCCGGCGGAUGCCUCCAAA | 9.84e-05 ± 1.9e-05 | – | – | – | – | 8.25e-05 ± 1.9e-05 | 8.27e-05 ± 1.2e-05 |
| AUAAAAGCGCCAGAACUACAGAAAUGUAGUUGACGAGGAGGAGGUUUAUCGAAUCUUCGGCGGAUGGCUCCAAA | < 1e-05 | < 1e-05 | – | – | – | – | – |
| AUAAAAGCGCCAGAACUACAGAAAUGUAGUUGACGAGGAGGAGGUUUAUCGAAUCUUCGGCGGAUGUCUCCAAA | 0.000234 ± 1.4e-05 | – | 499 ± 120 | – | 0.000134 ± 2.5e-05 | 0.000173 ± 4.2e-05 | 0.000231 ± 3e-05 |
| AUAAAAGCGCCAGAACUACAGAAAUGUAGUUGACGAGGAGGAGGUUUAUCGAAUCUUCGGCGGAUGACUCCAAA | 0.000193 ± 6.1e-05 | – | – | – | 0.000133 ± 2.3e-05 | 0.000137 ± 2.4e-05 | 0.00029 ± 5.7e-05 |
